Measured values from PMC7430568.

How the values were obtained:
[1] = target: SARS-CoV-2 Spike* (mutant, pre-fusion stabilised Spike protein ectodomain) (SARS-CoV-2, Wuhan-Hu-1); assay: SPR
[2] = target: SARS-CoV-2 Spike* (mutant, pre-fusion stabilised Spike protein ectodomain) (SARS-CoV-2, Wuhan-Hu-1)

Substance | kd2 (slow phase of dissociation) [1] [s⁻¹] | IC50 [2] [nM] | Kd [1] [nM]
Nb6-tri (trivalent Nb6 with two 20 amino acid linkers) (VHH) | < 1e-06 | 1.5 | 
mNb6-tri (trivalent mNb6) (VHH) |  | 0.4 | < 0.001
